Biological target: T1, Hfq_(S65C)-Flag (P. aeruginosa, UniProt Q9HUM0 1-82, S65C)
T1 construct: also called Hfq S65C-Flag protomer of Hfq*; source: E. coli JW4130F'Δhfq(pKEHfqPae); not shown: FLAG, C-terminal, kept
Assay: co-IP
Conditions: both partners purified

B1: P. aeruginosa Hfq, wild type (natural protein)
chain: MSKGHSLQDPYLNTLRKERVPVSIYLVNGIKLQGQIESFDQFVILLKNTVSQMVYKHAISTVVPSRPVRLPSGDQPAEPGNA
notes: RNA chaperone Hfq of Pseudomonas aeruginosa, wild type, from plasmid pKEHfqPae; In the row with m4 the wild-type protomer inside the mixed hexamer is meant; also called Hfq wt; Pae Hfq; source: for Hfq* co-produced with Hfq_(S65C)-Flag in the same strain
stoichiometry N: 1 Hfq wt per Hfq_(S65C)-Flag

Source: paper PMC8266614, “Stabilization of Hfq-mediated translational repression by the co-repressor Crc in Pseudomonas aeruginosa” (Nucleic Acids Research, 2021)
